According to patent US10736941B2, “Cell membrane-permeating peptide” (NATIONAL UNIVERSITY CORPORATION KUMAMOTO UNIVERSITY, priority 2015, dated 2020):
Where no end group is shown, it is not given here.

How the values were obtained:
Caco-2 cells [1] = experiment: Influence on tight junction of Caco-2 cells (TEER, Millicell ERS-2); type: cell-based, human; conditions: Caco-2 cells treated for 24 hours, 10 μM
Description: For the influence on tight junction, Caco-2 cells were cultured in Transwell, then, 2 mL of 0-10 μM peptide DNP was added at the apical (AP) side, and 1, 2, 3, 6, 12 and 24 hours after addition, the electric resistance value (TEER) was measured using Millicell ERS-2.
(§1) Caco-2 cells were treated for 24 hours using the cyclic peptide DNP having highest permeability at a concentration of 10 μM, but weakening of cell toxicity and tight junction was not observed.

Caco-2 cells [2] = experiment: Cell toxicity to Caco-2 cells (Cell Counting kit 8); type: cell-based, human; conditions: Caco-2 cells treated for 24 hours, 10 μM
Description: For cell toxicity, 100 μL of 0-10 μM DNP peptide was added to Caco-2 cells cultured in a 96-well plate, and the cell survival rates after 1, 6 and 24 hours were measured using Cell Counting kit 8 (DOJINDO Laboratories).
as §1

[3] = system: mouse small intestine closed loop; experiment: Promotion of insulin absorption by co-administration of cyclic peptide, mouse small intestine closed loop, blood glucose level; type: in vivo; conditions: DNPGNET 5 mM co-administered with insulin 10 IU/kg into mouse small intestine loop, versus insulin alone, over 60 minutes
Description: The influence on insulin absorption by co-administration of the cyclic peptide of the present invention was studied by measuring the blood glucose level.
We asked GenScript Japan Inc. to synthesize a cyclic peptide shown in FIG. 4B containing a sequence of DNPGNET (SEQ TD No: 5).
A peptide was prepared by using 100 μL of a hot HBSS solution so that the concentration of insulin was 10 IU/kg and the concentration of DNPGNET was 5 mM and incubated at 37° C. for 1 hour, and the resultant was used in the co-administration group. For the insulin single administration group, a sample was prepared by using 100 μL of a hot HBSS solution so that the concentration of insulin was 10 IU/kg and incubated at 37° C. for 1 hour, and the resultant peptide was used. In the same manner as in Example 6, a mouse small intestine closed loop was produced, then, the DNPGNET+insulin solution or the insulin solution prepared previously was administered into the loop. The time of administration was 0 min, and the blood glucose level was measured over a time of 60 minutes by using ACCU-CHEK (registered trademark) Aviva Nano.

Caco-2 cells [4] = experiment: Competitive inhibition of DNP-presenting phage permeation through Caco-2 cells by synthetic unlabeled DNP peptide; type: cell-based, human; conditions: unlabeled DNP 10 μM
Description: The experiment of permeation using Caco-2 cells was conducted according to a report of Ohura et al. (J. Pharm. Sci. Vol 100, No. 9, 2011). Each phage stock was prepared by diluting with an HBSS buffer so as to give a concentration of 5×10^11 pfu/mL. Caco-2 cells placed in Transwell (manufactured by Coring) were cultured, and formation of sufficient tight junction was confirmed, then, Transwell was transferred to a new 6-well plate. To the apical (AP) side of the cell, 2 mL of the phage preparation liquid was added and incubated at 37° C. (this time point t=0 min). When reached each time point, Transwell was transferred to a new 6-well plate. The time point was 1, 3, 5, 10 and 30 min. The sample at the basal (BA) side at each time point was kept on ice. When reached 30 min, Transwell was transferred to a new 6-well plate, and the HBSS buffer at the AP side was aspirated, then, the cells were recovered into a centrifugal tube. The titre at the BA side and the titre in the supernatant at each time point were measured by qPCR. […]
The DNP-presenting phage permeating Caco-2 cells was measured in the presence or in the absence of the unlabeled DNP, in the same manner as in Example 1. […]

Substance: DNPGNET (also: cyclic peptide, mode of cyclisation not given here)
- weakening of tight junction (TEER) (Caco-2 cells [1]): not observed
- cell toxicity (Caco-2 cells [2]): not observed
- insulin absorption (blood glucose level) [3]: absorption of insulin was promoted
- competitive inhibition of DNP-presenting phage permeating Caco-2 cells (Caco-2 cells [4]): competitive inhibition occurs
